This note sets out measurements from publication PMC7396675, “Functional and Structural Characterization of a Potent C1q Inhibitor Targeting the Classical Pathway of the Complement System” (Frontiers in Immunology, 2020).

One may read the Kd as the concentration at which binding is half-saturated.

One assay has as its target human C1q (Homo sapiens, UniProt P02745;P02746;P02747). The assay can be described thus: cell-based or functional assay.
The target in assay [1] is T1, monomeric single-chain recombinant gC1q (Homo sapiens).
T1 construct: globular head module of human C1q A-chain; numbers count on: the mature protein; globular head module of human C1q C-chain; globular head module of human C1q B-chain; also called single-chain form of gC1q; hC1qGH
T1 chain: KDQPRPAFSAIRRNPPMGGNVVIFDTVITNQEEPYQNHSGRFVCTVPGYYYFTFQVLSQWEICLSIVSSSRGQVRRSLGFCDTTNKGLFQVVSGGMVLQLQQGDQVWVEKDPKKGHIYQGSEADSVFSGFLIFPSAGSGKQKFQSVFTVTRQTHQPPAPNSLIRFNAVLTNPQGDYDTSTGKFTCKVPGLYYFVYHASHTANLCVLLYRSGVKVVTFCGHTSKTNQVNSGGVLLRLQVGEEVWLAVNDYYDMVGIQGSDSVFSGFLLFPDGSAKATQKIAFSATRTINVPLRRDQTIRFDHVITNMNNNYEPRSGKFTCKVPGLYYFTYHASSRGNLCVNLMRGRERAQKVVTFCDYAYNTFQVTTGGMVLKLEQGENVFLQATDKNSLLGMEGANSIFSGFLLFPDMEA
As to the kind of experiment: BLI; Octet Red96, 30°C, 1,000 rpm; C1qNb75 immobilized on amine reactive (AR2G) biosensors; kinetics buffer (PBS, 1 mg/mL BSA, 0.05% Tween 20); gC1q 0.3 to 10.9 nM, C1q 0.7 to 5.4 nM; gC1q data globally fitted with a 1:1 binding model. To be noted: both partners purified.

Sequence of human C1q (P02745 23-245, chain 1 of 2): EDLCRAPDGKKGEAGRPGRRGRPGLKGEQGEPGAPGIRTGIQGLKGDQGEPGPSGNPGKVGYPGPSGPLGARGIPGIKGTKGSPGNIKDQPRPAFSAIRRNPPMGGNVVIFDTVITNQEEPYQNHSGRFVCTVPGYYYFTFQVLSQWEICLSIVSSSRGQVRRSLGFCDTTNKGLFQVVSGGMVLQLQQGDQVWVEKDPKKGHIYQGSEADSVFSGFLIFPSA
Sequence of human C1q (P02747 29-245, chain 3 of 2): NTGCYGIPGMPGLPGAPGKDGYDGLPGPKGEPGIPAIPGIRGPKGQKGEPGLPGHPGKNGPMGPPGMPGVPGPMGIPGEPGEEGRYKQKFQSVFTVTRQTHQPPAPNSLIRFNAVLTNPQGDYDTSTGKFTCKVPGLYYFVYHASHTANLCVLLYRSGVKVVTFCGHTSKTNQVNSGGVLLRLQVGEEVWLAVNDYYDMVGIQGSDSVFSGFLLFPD

B1: C1qNb75 (VHH)
VHH: QVQLVETGGGLVQAGGSLRLSCAASGRTFNNDVMAWFRQAPGTEREFVALITAGGGTHYADSVKGRFVISRDNDKNMAYLQMNSLKSEDTAIYYCGADENPPGWPSRWSSAYDYWGQGTQVTVSS
notes: nanobody chain of the crystal structure deposited here as PDB 6Z6V; also called C1q specific nanobody; source: E. coli LOBSTR cells (pET22b+), purified (Ni-NTA, MonoS, Superdex75)
Regarding B1, the “IC50 of hemolysis of IgM-sensitized sheep RBCs in NHS with increasing concentrations of C1qNb75 (blocks C1q binding to IgM)” value in the assay with human C1q came out at 5.8 nM. In addition, in assay [1], the Kd is 0.3 nM and the t1/2 stood at 1.14 h.
